Structures can show the parent of a compound that is named as a salt. Where two headings read alike, the source gives them in different places. One block for each compound: values may come before it.
Legend:
PEPC = assay: Effect of calcium and Mg^2+ on PEPC activity; type: biochemical, Hyphomicrobium
Hyphomicrobium PEPC [1] = settings: pH 8.0, 167 mM Tricine buffer + 1 mM MgCl2
Hyphomicrobium PEPC [2] = assay: Km of Hyphomicrobium PEPC with phosphoenol pyruvate salts; type: biochemical; settings: pH 7.0 and 25° C.
Procedure: The Km's of Hyphomicrobium PEPC were checked with both sodium bicarbonate and phosphoenol pyruvate as substrates.
The result is 0.91 mM for the tricyclohexylammonium salt.

[3] = pH stability of enzyme solutions stored at 25° C.; type: physicochemical
Procedure: For pH 6.0, 8.0 and 9.0, 150 mM Tricine+1 mM MgCl2 was used. For pH 7.0 150 mM bis-tris+1 mM MgCl2 was chosen. Solutions were stored at 25° C.

[4] = Specific activity of PEPC (malate dehydrogenase/NADH-coupled assay, A340); type: biochemical
Procedure: (a) Lysis is performed with a solution of Triton X-100, a non-ionic detergent. It is added to resuspended cells (10% w/v) at 1% v/v. Lysis usually takes about 1 to 1.5 hours at 15° to 20° C. Once lysis is complete, the cell debris is removed by centrifugation with the aid of streptomycin sulphate.
(§1) (b) Column chromatography involves the use of a strong anion exchanger such as Fractogel-TMAE, DEAE sepharose, Q sepharose, DE 52 or QA 52.
(§2) For a large volume of enzyme solution, the absorption can be is carried out as a batch up-take. The gel also has a batch wash prior to packing into the column for a gradient elution.
(§3) The gradient is of increasing salt concentration. The active fractions are pooled to give a specific activity of >30 U/mg but some fractions contain enzyme of 60 U/mg protein.
Lyophilised PEPC powder is obtained, having the following characteristics:
A 167 mM Tricine. HCl buffer, pH 8.0, containing 16.7 mM MgCl2
B 20.7 mM sodium bicarbonate in Reagent A
C 217 mM phosphoenolpyruvate in Reagent A
D 10 mM NADH solution, the concentration of which is checked in the following way:
1 Dispense 0.98 ml of Reagent A into a cuvette and zero a spectrophotometer set at 340 nm with this cuvette
2 Add 0.02 ml of Reagent D to this cuvette and mix thoroughly
E 700 U/ml malate dehydrogenase
1 Adjust spectrophotometer to 340 nm and 25° C.
2 Prepare a reagent cocktail as follows:
Into a 50 ml beaker dispense; 46.0 ml Reagent B 1.0 ml Reagent C
This cocktail is stable for 8 hr when stored at 4° C.
3 Dispense 0.94 ml of the reagent cocktail into a cuvette together with 0.02 ml of Reagent D, and 0.02 ml of Reagent E
Incubate the cuvette in the spectrophotometer at 25° C. to attain temperature equilibration and then establish background rate, if any
4 Dilute the enzyme to approximately 1.5 U/ml in reagent A, and initiate the reaction by adding 0.02 ml of this solution to the cuvette
5 Calculate the change in absorbance (ΔA/rain) over the linear portion of the reaction [formula]

[5] = Stability of reconstituted enzyme with azide; type: physicochemical
Procedure: The enzyme was stored in assay buffer (167 mM Tricine/HCl with 15 mM MgCl2, pH 8.0).

[6] = Storage of enzyme on anion exchange gel: recovery and pool specific activity; type: physicochemical
Procedure: as §1, §2, §3
If stored for longer, then the recoveries begin to decrease.

[7] = Effect of pH on the enzyme activity (buffers and pH changed); type: biochemical
Excerpt: The effect of pH on the enzyme activity was checked by changing the buffers as well as pH values. Once again, at pH 7 Bis-tris was used.

[8] = pH 7
[9] = Effect of temperature on the activity of PEPC; type: biochemical; settings: 167 mM tricine pH 7.0, 1 mM MgCl2
Procedure: The effect of temperature on the activity of PEPC was evaluated. Lyophilised enzyme was resuspended in 167 mM tricine buffer pH 7.0 containing 1 mM MgCl2 at a concentration of 300 u/l. The enzyme was then assayed at the desired temperature using the recommended reagents.

[10] = Effect of pH on the activity of PEPC; type: biochemical
Procedure: The effect of pH on the activity of PEPC was evaluated. Lyophilised enzyme was resuspended (10 mg/ml)) in 167 mM Tricine pH 8.0 (+1 mM MgCl2) and diluted to a concentration of 1 u/ml. The enzyme was then assayed in the following buffer systems. At pH 6.0, 8.0 and 9.0 Tricine (150 mM) was used. At pH 6.5 and 7.0 bis-tris (150 mM) was used.

[11] = lyophilised
Procedure: Stability trials have been conducted on lyophilised enzyme, at 4° C., 25° C. and 37° C.
All recoveries are based on specific activity to rule out weighing errors.

[12] = isolated enzyme
[13] = after anion exchange gradient elution

Compound: [Ca+2] [calcium]
effect on PEPC activity (PEPC; low concentrations): inhibitory effect

Compound: phosphoenolpyruvate carboxylase [PEPC]
% activity recovered ([3]; pH 6, 7 days, Tricine): 69%
% activity recovered ([3]; pH 6, 12 days, Tricine): 45.5%
% activity recovered ([3]; pH 7, 7 days, bis-tris): 99%
% activity recovered ([3]; pH 7, 12 days, bis-tris): 78.2%
% activity recovered ([3]; pH 8, 7 days, Tricine): 81.8%
% activity recovered ([3]; pH 8, 12 days, Tricine): 67.3%
% activity recovered ([3]; pH 9, 7 days, Tricine): 78.2%
% activity recovered ([3]; pH 9, 12 days, Tricine): 56.4%
specific activity of pooled active fractions [4, 13]: > 30 U/mg
specific activity of some fractions [4, 13]: 60 U/mg protein
Powder activity ([4]; lyophilised PEPC powder): > 10 U/mg
Specific activity ([4]; lyophilised PEPC powder): > 25 U/mg Protein
% activity recovered ([5]; pH 8.0, 4 days, 4° C.): 94%
% activity recovered ([5]; pH 8.0, 4 days, 25° C.): 104%
% activity recovered ([5]; pH 8.0, 4 days, 37° C.): 2%
% activity recovered ([5]; pH 8.0, 7 days, 4° C.): 96%
% activity recovered ([5]; pH 8.0, 7 days, 25° C.): 92%
% activity recovered ([5]; pH 8.0, 7 days, 37° C.): 0%
% activity recovered ([5]; pH 8.0, 14 days, 4° C.): 94%
% activity recovered ([5]; pH 8.0, 14 days, 25° C.): 93%
% activity recovered ([5]; pH 8.0, 30 days, 4° C.): 100%
% activity recovered ([5]; pH 8.0, 30 days, 25° C.): 86%
% activity recovered ([5]; pH 8.0, 42 days, 4° C.): 105%
% activity recovered ([5]; pH 8.0, 42 days, 25° C.): 85%
% activity recovered ([5]; pH 8.0, 63 days, 4° C.): 105%
% activity recovered ([5]; pH 8.0, 63 days, 25° C.): 66%
Pool S/A ([6]; 0 days stored on gel): 37.4 U/mg
Total recovery ([6]; 0 days stored on gel): 91%
Pool S/A ([6]; 2 days stored on gel): 33.0 U/mg
Total recovery ([6]; 2 days stored on gel): 85%
Pool S/A ([6]; 4 days stored on gel): 28.1 U/mg
Total recovery ([6]; 4 days stored on gel): 76%
Pool S/A ([6]; 8 days stored on gel): 26.9 U/mg
Total recovery ([6]; 8 days stored on gel): 60%
loss of activity on gel ([6]; held on the gel overnight): no loss of activity
% activity recovered ([7]; pH 6): 65.5%
% activity recovered ([7]; pH 6.5): 74.5%
% activity recovered ([7]; pH 7.0, Bis-tris): 100%
% activity recovered ([7]; pH 8.0): 88.2%
% activity recovered ([7]; pH 9.0): 74.5%
stability and activity [8]: better stability and activity
relative activity ([9]; 20° C.): approximately 10%
relative activity ([9]; 50° C.): 100%
relative activity ([9]; 55° C.): approximately 10%
relative activity ([10]; pH 6.0, Tricine (150 mM)): approximately 70%
relative activity ([10]; pH 6.5, bis-tris (150 mM)): ~85%
relative activity ([10]; pH 7.0, bis-tris (150 mM)): ~115%
relative activity ([10]; pH 8.0, Tricine (150 mM)): ~100%
relative activity ([10]; pH 9.0, Tricine (150 mM)): ~90%
% activity recovered ([11]; 0 days, 4° C.): 100%
% activity recovered ([11]; 0 days, 25° C.): 100%
% activity recovered ([11]; 0 days, 37° C.): 100%
% activity recovered ([11]; 3 days, 25° C.): 95%
% activity recovered ([11]; 3 days, 37° C.): 97%
% activity recovered ([11]; 7 days, 4° C.): 83%
% activity recovered ([11]; 7 days, 25° C.): 83%
% activity recovered ([11]; 7 days, 37° C.): 87%
% activity recovered ([11]; 10 days, 25° C.): 94%
% activity recovered ([11]; 10 days, 37° C.): 91%
% activity recovered ([11]; 18 days, 4° C.): 92%
% activity recovered ([11]; 18 days, 25° C.): 88%
% activity recovered ([11]; 18 days, 37° C.): 90%
% activity recovered ([11]; 24 days, 25° C.): 90%
% activity recovered ([11]; 24 days, 37° C.): 87%
% activity recovered ([11]; 50 days, 4° C.): 114%
% activity recovered ([11]; 77 days, 4° C.): 110%
pH profile [12]: broad pH profile

Compound: [Mg+2] [Mg^2+]
activation of the enzyme (PEPC): only effective activator of the enzyme
activation, chloride vs sulphate (PEPC; chloride compound compared with sulphate): works better as the chloride compound than as the sulphate

Further lines, results first:

Km (Hyphomicrobium PEPC [1]): 1300 µM
Km (Hyphomicrobium PEPC [1]; read-out: Km (probable, without dissolved carbon dioxide from the atmosphere)): < 1000 µM
Compound: O=C(O)O [bicarbonate, sodium bicarbonate]

Km (Hyphomicrobium PEPC [2]): 910 µM
Km, comparison of PEP salts (Hyphomicrobium PEPC [2]): very similar
Compound: C=C(OP(=O)(O)O)C(=O)O [tricyclohexylammonium salt, phosphoenol pyruvate]

— patent US5514538A, “Bicarbonate assay and phosphoenolpyruvate carboxylase enzyme from hyphomicrobium” (Genzyme Limited, priority 1990, dated 1996)
